Sequences and labels used below:
B1: Guanyl-specific ribonuclease T1, P00651 (parent)
chain: MMYSKLLTLTTLLLPTALALPSLVERACDYTCGSNCYSSSDVSTAQAAGYQLHEDGETVGSNSYPHKYNNYEGFDFSVSSPYYEWPILSSGDVYSGGSPGADRVVFNENNQLAGVITHTGASGNNFVECT

In this data set the parent is B1. To be noted: Aspergillus oryzae (strain ATCC 42149 / RIB 40), 0 °C, Urea, CD, reversible: yes, structure 1RN1, whole UniProt chain shown.

For the variant MMYSKLLTLTTLLLPTALALPSLVERACDYTCGSNCYSSSDVSTAQMAGYQLHEDGETVGSNSYPHKYNNYEGFDFSVSSPYYEWPILSSGDVYSGGSPGADRVVFNENNQLAGVITHTGASGNNFVECT [A47M], where the note is “pH 2.5, glycine 30 mM”, the “ddG of mutation (higher = less stable)” value came out at 0.15 kcal/mol, the denaturant m value was 1.6 kcal/mol/M and the “denaturant midpoint (higher = more stable)” value (“denaturant midpoint” for short) was 2.69 M.
The matching figures for MMYSKLLTLTTLLLPTALALPSLVERACDYTCGSNCYSSSDVSTAQCAGYQLHEDGETVGSNSYPHKYNNYEGFDFSVSSPYYEWPILSSGDVYSGGSPGADRVVFNENNQLAGVITHTGASGNNFVECT [A47C]: 0.74 kcal/mol, 1.56 kcal/mol/M and 2.33 M.
Take MMYSKLLTLTTLLLPTALALPSLVERACDYTCGSNCYSSSDVSTAQHAGYQLHEDGETVGSNSYPHKYNNYEGFDFSVSSPYYEWPILSSGDVYSGGSPGADRVVFNENNQLAGVITHTGASGNNFVECT [A47H]: where the note is “pH 2.5, glycine 30 mM”, the “ddG of mutation (higher = less stable)” value was 0.56 kcal/mol, the denaturant m value is 1.79 kcal/mol/M and the “denaturant midpoint” value is 2.44 M. For the setting “pH 7, MOPS 30 mM”, the “ddG of mutation (higher = less stable)” value was determined as 0.17 kcal/mol, the denaturant m value came out at 1.27 kcal/mol/M and the “denaturant midpoint” value was determined as 4.18 M.
Consider MMYSKLLTLTTLLLPTALALPSLVERACDYTCGSNCYSSSDVSTAQWAGYQLHEDGETVGSNSYPHKYNNYEGFDFSVSSPYYEWPILSSGDVYSGGSPGADRVVFNENNQLAGVITHTGASGNNFVECT [A47W], for which, where the note is “pH 2.5, glycine 30 mM”, the “ddG of mutation (higher = less stable)” value amounted to 0.3 kcal/mol, the denaturant m value came to 1.56 kcal/mol/M and the “denaturant midpoint” value worked out at 2.6 M.
For MMYSKLLTLTTLLLPTALALPSLVERACDYTCGSNCYSSSDVSTAQGAGYQLHEDGETVGSNSYPHKYNNYEGFDFSVSSPYYEWPILSSGDVYSGGSPGADRVVFNENNQLAGVITHTGASGNNFVECT [A47G], under “pH 2.5, glycine 30 mM”, the “ddG of mutation (higher = less stable)” value turned out to be 0.9 kcal/mol, the denaturant m value was 1.71 kcal/mol/M and the “denaturant midpoint” value was 2.23 M.
In the case of MMYSKLLTLTTLLLPTALALPSLVERACDYTCGSNCYSSSDVSTAQDAGYQLHEDGETVGSNSYPHKYNNYEGFDFSVSSPYYEWPILSSGDVYSGGSPGADRVVFNENNQLAGVITHTGASGNNFVECT [A47D], where the note is “pH 2.5, glycine 30 mM”, the “ddG of mutation (higher = less stable)” value was -0.33 kcal/mol, the denaturant m value was determined as 1.59 kcal/mol/M and the “denaturant midpoint” value came out at 2.98 M. In addition, for the setting “pH 7, MOPS 30 mM”, the “ddG of mutation (higher = less stable)” value was 0.71 kcal/mol, the denaturant m value turned out to be 1.24 kcal/mol/M and the “denaturant midpoint” value is 3.73 M.
Regarding MMYSKLLTLTTLLLPTALALPSLVERACDYTCGSNCYSSSDVSTAQYAGYQLHEDGETVGSNSYPHKYNNYEGFDFSVSSPYYEWPILSSGDVYSGGSPGADRVVFNENNQLAGVITHTGASGNNFVECT [A47Y], for the setting “pH 2.5, glycine 30 mM”, the “ddG of mutation (higher = less stable)” value amounted to 0.39 kcal/mol, the denaturant m value stood at 1.69 kcal/mol/M and the “denaturant midpoint” value was 2.54 M.
As to MMYSKLLTLTTLLLPTALALPSLVERACDYTCGSNCYSSSDVSTAQNAGYQLHEDGETVGSNSYPHKYNNYEGFDFSVSSPYYEWPILSSGDVYSGGSPGADRVVFNENNQLAGVITHTGASGNNFVECT [A47N], where the note is “pH 2.5, glycine 30 mM”, the “ddG of mutation (higher = less stable)” value is -0.34 kcal/mol, the denaturant m value came out at 1.72 kcal/mol/M and the “denaturant midpoint” value is 2.99 M.
For MMYSKLLTLTTLLLPTALALPSLVERACDYTCGSNCYSSSDVSTAQFAGYQLHEDGETVGSNSYPHKYNNYEGFDFSVSSPYYEWPILSSGDVYSGGSPGADRVVFNENNQLAGVITHTGASGNNFVECT [A47F] the same measures were 0.57 kcal/mol, 1.69 kcal/mol/M and 2.43 M.
The matching figures for MMYSKLLTLTTLLLPTALALPSLVERACDYTCGSNCYSSSDVSTAQLAGYQLHEDGETVGSNSYPHKYNNYEGFDFSVSSPYYEWPILSSGDVYSGGSPGADRVVFNENNQLAGVITHTGASGNNFVECT [A47L]: 0.13 kcal/mol, 1.64 kcal/mol/M and 2.7 M.
For MMYSKLLTLTTLLLPTALALPSLVERACDYTCGSNCYSSSDVSTAQIAGYQLHEDGETVGSNSYPHKYNNYEGFDFSVSSPYYEWPILSSGDVYSGGSPGADRVVFNENNQLAGVITHTGASGNNFVECT [A47I] the same measures were 0.44 kcal/mol, 1.57 kcal/mol/M and 2.51 M.
In the case of MMYSKLLTLTTLLLPTALALPSLVERACDYTCGSNCYSSSDVSTAQSAGYQLHEDGETVGSNSYPHKYNNYEGFDFSVSSPYYEWPILSSGDVYSGGSPGADRVVFNENNQLAGVITHTGASGNNFVECT [A47S], for the setting “pH 2.5, glycine 30 mM”, the “ddG of mutation (higher = less stable)” value turned out to be 0.49 kcal/mol, the denaturant m value came to 1.67 kcal/mol/M and the “denaturant midpoint” value was 2.48 M. Under “pH 7, MOPS 30 mM”, the “ddG of mutation (higher = less stable)” value is 0.4 kcal/mol, the denaturant m value was 1.22 kcal/mol/M and the “denaturant midpoint” value amounted to 3.99 M.
With MMYSKLLTLTTLLLPTALALPSLVERACDYTCGSNCYSSSDVSTAQKAGYQLHEDGETVGSNSYPHKYNNYEGFDFSVSSPYYEWPILSSGDVYSGGSPGADRVVFNENNQLAGVITHTGASGNNFVECT [A47K], where the note is “pH 2.5, glycine 30 mM”, the “ddG of mutation (higher = less stable)” value was 0.51 kcal/mol, the denaturant m value came out at 1.7 kcal/mol/M and the “denaturant midpoint” value stood at 2.47 M.
The matching figures for MMYSKLLTLTTLLLPTALALPSLVERACDYTCGSNCYSSSDVSTAQTAGYQLHEDGETVGSNSYPHKYNNYEGFDFSVSSPYYEWPILSSGDVYSGGSPGADRVVFNENNQLAGVITHTGASGNNFVECT [A47T]: 0.57 kcal/mol, 1.6 kcal/mol/M and 2.43 M.
Turning to MMYSKLLTLTTLLLPTALALPSLVERACDYTCGSNCYSSSDVSTAQEAGYQLHEDGETVGSNSYPHKYNNYEGFDFSVSSPYYEWPILSSGDVYSGGSPGADRVVFNENNQLAGVITHTGASGNNFVECT [A47E], for the setting “pH 2.5, glycine 30 mM”, the “ddG of mutation (higher = less stable)” value is -0.05 kcal/mol, the denaturant m value amounted to 1.52 kcal/mol/M and the “denaturant midpoint” value is 2.81 M. Besides, for the setting “pH 7, MOPS 30 mM”, the “ddG of mutation (higher = less stable)” value was 0.69 kcal/mol, the denaturant m value is 1.14 kcal/mol/M and the “denaturant midpoint” value amounted to 3.75 M.
Turning to MMYSKLLTLTTLLLPTALALPSLVERACDYTCGSNCYSSSDVSTAQRAGYQLHEDGETVGSNSYPHKYNNYEGFDFSVSSPYYEWPILSSGDVYSGGSPGADRVVFNENNQLAGVITHTGASGNNFVECT [A47R], for the setting “pH 2.5, glycine 30 mM”, the “ddG of mutation (higher = less stable)” value amounted to 0.41 kcal/mol, the denaturant m value is 1.65 kcal/mol/M and the “denaturant midpoint” value came out at 2.53 M.
MMYSKLLTLTTLLLPTALALPSLVERACDYTCGSNCYSSSDVSTAQQAGYQLHEDGETVGSNSYPHKYNNYEGFDFSVSSPYYEWPILSSGDVYSGGSPGADRVVFNENNQLAGVITHTGASGNNFVECT [A47Q]: where the note is “pH 7, MOPS 30 mM”, the “ddG of mutation (higher = less stable)” value amounted to 0.4 kcal/mol, the denaturant m value amounted to 1.12 kcal/mol/M and the “denaturant midpoint” value was 3.99 M.
As for MMYSKLLTLTTLLLPTALALPSLVERACDYTCGSNCYSSSDVSTAQVAGYQLHEDGETVGSNSYPHKYNNYEGFDFSVSSPYYEWPILSSGDVYSGGSPGADRVVFNENNQLAGVITHTGASGNNFVECT [A47V], for the setting “pH 2.5, glycine 30 mM”, the “ddG of mutation (higher = less stable)” value came out at 0.66 kcal/mol, the denaturant m value worked out at 1.77 kcal/mol/M and the “denaturant midpoint” value stood at 2.38 M.
